# Target: HLA-A2 (HLA-A*02:01) on cells (T2 cells; K562A2 cells) (human)
# Assay: T2 peptide-binding assay: T2 cells with peptide at 100 µg/mL overnight, surface HLA-A2 by flow cytometry (T2 only: 3.34E+05)
substance,measurement,value
HPV-16 E7 p11-19 peptide (from UniProt P03129 11-19),Mean Fluorescence Intensity (surface HLA-A2),492000
